Experiment: soluble fraction after stress (log2 fold change); higher = more stays soluble; pooled small domains, quantitative proteomics
Details: stress: 75 degC
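Further: 20 min heating vs room temperature control held 20 min.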

Going from “HMNMANFARIRLILELHDRGMSQDEISRSRHMSRSTITTVLRTARKKGITYAGIRKLDDAALQKLFFPDR” to “HMNMDLGHSISKLRTDANLTQEKFAQILNVSRQTVQKWEYGEALPDIHNIIKIAKFFNISLDALVLRS”, the “soluble fraction (log2)” value rises from -4.02 to -3.02.

First: HMNMIGDVIRNLRTVSSMTQTELGQRMGVIKQTISNWEKNISTPSIDAIVKLSSIFNVPTDYLL
Second: HMNMMESNLFAVYDNDDIVKTLRQGAMEIDSLIRLMGKSSAEVLEKLTTMELQGIITRSGNIIALNN
The “soluble fraction (log2)” value of the first is lower: -1.22 for the first, -0.427 for the second.

Going from “HMNMNDIKFGKYLKRVRKKYNFSKEYVANILKVKESLVSDWESGRLTLNDEYMEKLSLFYGVNLYKK” to “HMNMPDVTVEWVKEQQAKFGLTDSDLAKSVNIDNANLARIFNQRGLTKIHKALFYYFFRAYGLQ”, the “soluble fraction (log2)” value falls from -1.57 to -3.33.

First: HMNMRVLSEQPNKKSYQDGNLRLKVFGASFKKSDILNEALNQARVEETGLQIPKLLEVKQIDGQWTIVTE
Second: HMNMVSGHLQVKKGYYYAVLSFYDSKNKRHVKYISTGLPEKGNKRKAEAELVKIRNAFEPPAE
The “soluble fraction (log2)” value of the first is higher: -0.0583 for the first, -0.516 for the second.

“HMNNESEGAIMLRQYSSLSAYLTKYNIDVNSKKAQQYASSLKLAQEKGSAEGQKYLSSISSELDD” and “HMNNIIEQIKADIKKLEEKLDKSSENALNKLEKDYSSLSTESKKKLDDAGYGARIKALRVKFAALSTQ” are within 0.2 log units of each other in “soluble fraction (log2)” value: -0.205 for the first, -0.0452 for the second.

Compared with “HMNNISKKIKELREQNNITQNKLANDLFIKQQTVAQWENGSRALKADSIISLAKYFNVSTDYLLGLTEN”, “HMNNLKTKELSKIGYTNDKARSLVISIIPKHFKYHSKSEIIELLTNIKNKPEDYVSDEILGKIAETFMEKI” is lower in “soluble fraction (log2)” value: -0.898 for the first, -1.23 for the second.

“HMNNLSEELNVTFPRTRDQLLNILHYVQHKYGYISKVSMQEIGNHIKMPVSEIYGTVTSYSEFKI” and “HMNNLTEEAINHLVLEVKNVLLTDALFLGKATDSQLMLRIKETIDQRNGQYNIGMNDRERIARRVFARLR” are within 0.2 log units of each other in “soluble fraction (log2)” value: -2.25 for the first, -2.19 for the second.

“HMNNLVGKTKVLKSNTNIYAYKTMSGKFYSYLPNTRVRVLQDLGYINYIEVIATKRRGYVYENVY” and “HMNNNIFVYPNPSINYINIDSDEEIWKLEIIQMSGEKINILPFSKRIDISFLSKGLYILNFNNYYIKFIK” are within 0.2 log units of each other in “soluble fraction (log2)” value: -0.234 for the first, -0.136 for the second.

Compared with “HMNNQIFGLKFRQLRKQQHITLAKAAAGITSRQSLGNWETGKGELAFEKVLLLLKKINVQPIDFLESSIS”, “HMNNQILYERLRDLRERNHFTQAFVSSKLNIGRATYSNYERGKRTPSLDVIMDLASFYKVPFTYF” is higher in “soluble fraction (log2)” value: -3.9 for the first, 0.0974 for the second.

Compared with “HMNNQMTFSKFLNEVDAGRVVEVEIQGNNIKGVLADGNRFNTFSPNYPNLVEKLSDKGVSITAAPK”, “HMNPASVLDGLKITSFSPTRAIVAGPGGSRIVFDNEAVVLGGIEWDVHIQRNGIEFTSQGQTVLLLFDRS” is lower in “soluble fraction (log2)” value: 0.174 for the first, -2.35 for the second.

Going from “HMNPDDEMLLTYLTKLLVDKQFIVNSNDIFEYILRRVDRTYDGIYDIVSKLDVLSLEKKRQLTIPLIKEI” to “HMNPETIHNDYKAFIKFAFSGLSYYSKVWNQNREMITPGLLETLWQKYRHLSIGEIETILEKIIKEG”, the “soluble fraction (log2)” value falls from 0.288 to -2.38.

Going from “HMNPGNTESFPVYQKRLGEIIQTLAGKKGQDINSPEVKELVGEYDFLTKQMFQLPDATSMVMEIATAYRN” to “HMNPKTELMVYLKKRDEWVASQILSDVLQVSTRTIRKFVKEINMDYQTENVILSSSKGYKLNQNLLSSL”, the “soluble fraction (log2)” value falls from 0.0725 to -1.19.

First: HMNPLPALLRYFRQKAGLTQQDVAAALSISRSGYANYEEGRNIPNIEQAIKLSELLNHDFLYAYTLSS
Second: HMNPNYIKKLREKNQLTQEYLAAQIGVSRPTYAQIEQGQRGLTVTEAKKMADIFSLALDDFLAEKN
The “soluble fraction (log2)” value of the first is lower: -2.53 for the first, -0.135 for the second.

First: HMNPSIALHDWLQSSEFKGSINLFAAALGMNPRTVEAWVYGRSTPSRRFWAKLYQITNLSRFRL
Second: HMNPYLWQRVRLLFSNVGVINNSATVDLVFSAPKGVLTEDLANNFSAALVKKGKEELGLDDIKITISVIPN
The “soluble fraction (log2)” value of the first is higher: -1.08 for the first, -3.67 for the second.

Going from “HMNQADNFNSLTKREKDVLLLVTQGESNKSIADKLVLSEVTVKSHLNSIFKKLNVTNRTQAVLVAMQMNLV” to “HMNQAIIVPDVKGLPLEEATTFFENNDLRYTVIDSVYTKDVPPGAIYEMVPGAGSKVKEGRIIFVTLNAR”, the “soluble fraction (log2)” value rises from -1.6 to -0.183.

First: HMNQASLTYSEFIANVESKAITRVTISGDTISGILADGKPFQTIYPMADLELLPILRRSGVDINVKEVQ
Second: HMNQEIELLLREPDFTSAARLAMAINERFTNSARAIDPTSVKVRMPEGLDQASVDFVARLEDIEMSPDT
The “soluble fraction (log2)” value of the first is lower: -1.51 for the first, 0.155 for the second.

“HMNQEQQSAVMSALKATLPDLEAALEARQFKESKQLLKTAQNQFQQLDGRNRRGFQARIQLLAGQFRELS” and “HMNQIDDADRKRVVDEVAGQFSSMSLTEMRSDREKLLSRIIPQVQTTLNRLGLQTIDVEGIAREVIARVG” are within 0.2 log units of each other in “soluble fraction (log2)” value: -0.179 for the first, -0.0822 for the second.

First: HMNQIFAPMPGLVLEVKLSEGDVVAEGESAIILEAMKMENIIKSPINGIVKKVHVKKGQTIEKNTLIISFK
Second: HMNQLSYTERRVLQVIEGGTTKTGEIEQALAAKMSRPTVHRALDALVGANRIHRLARGEYALGPAP
The “soluble fraction (log2)” value of the first is lower: -3.1 for the first, -0.501 for the second.

Compared with “HMNQRQKQLLSILEQQGDWMKGKALATLLAVSDRTIRSDIEKINREVEGSILSHPHKGYLLSVENRQIAET”, “HMNQSKYQTIADELKSKILSGEYPENTTIPPELQLQKDYQVSRHTIRQAIALLANEGFLRKEKGSGTYVDV” is lower in “soluble fraction (log2)” value: 0.107 for the first, -0.147 for the second.

Compared with “HMNQTTYTVLYSGMDPADTGKVLTALNEMGVDARTQGEDTVLVPADRADEIRLELAAQGYPTS”, “HMNQYIFVLNEKGARITSFVDNTIPKEELIALAKQDYPNAADYIYSADGDSMLDEFMRGKLYVNGQFVAA” is lower in “soluble fraction (log2)” value: 0.06 for the first, -0.843 for the second.

Compared with “HMNREIVVYITGAVDNPGLYRLPLDSRLDDVLKLAVLSTNADREVLNPAQKLKDGQKIVVPYIVE”, “HMNRGITVIVNNEEIKMKEKAQYVVVDIFDYIDFDLTVPKGSINITLNGENTPYTASIKDGDVIEVFW” is lower in “soluble fraction (log2)” value: -0.49 for the first, -1.09 for the second.

First: HMNRIARRELMEQLFADNKITTQEQLQQLLRAEGVEVTQATISRDMRILNIVKVSDQNGNTYYKQMK
Second: HMNRIEMTEPIIIKDLSRETGIPWVAIQKRLAQDGIMANINTTIEAEKAQLIAVDYGIELAVV
The “soluble fraction (log2)” value of the first is higher: -0.171 for the first, -0.427 for the second.

Going from “HMNRIGERIKRKRELRNLNLGELAEKVGISASALSQIEKSKSFPSVITLKSIAEQLRTTVGELIGEN” to “HMNRIKIYPTPGSKVLSIENINFSLIHDFKILDIFGREVKNFTVSSEKNTKMLVDTSKLSDGLYFIFFNTF”, the “soluble fraction (log2)” value falls from -0.191 to -1.11.

First: HMNRLEFLQGLKAELEGRVPHSIIQENLRYYDSYISDEAAKGQSEEDVVESLGGPRIIARTIVDAA
Second: HMNRNEFMERLEYLLSDIPQEEKADAIAYYRDYLEEAGDDAGKAIQDFGSPERIAAMIRSELAG
The “soluble fraction (log2)” value of the first is higher: 0.267 for the first, -0.0288 for the second.

First: HMNRQTGTVKWFNDAKGFGFITPESGPDLFVHFRSIQGAGFKSLQEGQRVTFVAVQGQKGMQADQVQA
Second: HMNRTKQIYNELLFRLDQGVYPPESKFPSESQLADEFSVSKVTMNKIVSMLASSGRLSRGVRGAGTFVSSP
The “soluble fraction (log2)” value of the first is higher: -0.681 for the first, -1.33 for the second.

Going from “HMNRYPIQTEVHAFNDDIIKEAINFEMSRGGQIFFVNNRIPQLYELENTIHRLVPDARVVIGHGQMP” to “HMNSFKIYPNPSSREVVRFNQAQDVKVYDTLGKLILSAKNTSAIDTKSFNTGIYFIKTANGLTKKLIV”, the “soluble fraction (log2)” value falls from -0.216 to -0.886.

First: HMNSGFEVFREVVNQGSFIGAANALGISAPAVSKQIKLLENRLGLLLLYRTTRNVTLTDIGKQLFDTLDNS
Second: HMNSKKRQAILESLRSVTDHPTAEMIYNRLKPEYPDLSLGTVYRNLAMFLEEGQVISVGTVDGQERYDAR
The “soluble fraction (log2)” value of the first is lower: -1.98 for the first, -0.564 for the second.

“HMNSKSFIFHIEDEEGIRLDVFLADNLPDVSRSYVQKLIDEEHVKVNGQSAKSRLKTVSGMEITVDVPAPK” and “HMNSLGYSDFVVDVQNERVASVVIEGLIINGERRDGTKFRTVLPTIGDQRLMDDLINHNVKVLARE” are within 0.2 log units of each other in “soluble fraction (log2)” value: -0.56 for the first, -0.375 for the second.

First: HMNSLTVPDITNRTLAEASQVLLDMGLTPIPDAVAKDGVGDDVVYAQSPPPNVGAREGDVVTITYNPA
Second: HMNSNISYSEFLSQVEKGTINSVEITGNSIKGIYADGGEFITFSPGDPGLIDKLQRSDIEILATPPA
The “soluble fraction (log2)” value of the first is higher: 0.452 for the first, 0.233 for the second.

First: HMNSPSKVIDISQLRKGMFVQLDLGWMSHPFAVGSFKVSTDEQIQTLRGLGLSEVRYIPEKSDPA
Second: HMNSQSGKGGVGYILETKYGLNLPPKMREAMGYAAKGVSDHLHKELHPDEIFDLFKKTFENVGQPYS
The “soluble fraction (log2)” value of the first is lower: -1.2 for the first, -0.271 for the second.

Going from “HMNSSLLGKRIKSLREDHDLTQKELSLMIGLTPKMISFYENNQRTPPLDILLKLAKIFEVSVDYLIGYA” to “HMNSTRAPYLLDFEEDAAIREARRAGLVPRIARQPSGEPVGRVILQSHDYDYPMKRGDTILITISSG”, the “soluble fraction (log2)” value falls from -0.615 to -0.833.

Going from “HMNSTSGIAGVGYWINQYRKKKGMSPVDKKSPLVRRVYDWVQEQYDEGRITIISDAELTRQTELAMEA” to “HMNSVAASLREISIKVSGTEDADKVSRLQELSQMPKLDASGIAEANTLLEQLRAKYGDLGLSVDTARGRIV”, the “soluble fraction (log2)” value rises from -0.482 to 0.494.

Going from “HMNSVSIAPEMLNWVIAHIQMNSLPKQIVEHLTAWISGQKEPTFNQIEKVSRATGIPLGYFFLEQPPKE” to “HMNSYKGELLVDDKNIRLDLYLFNQFNFFSRTKIKNYILKGNVLVNNNKTSPSYILKGSEKIYYDFSVS”, the “soluble fraction (log2)” value falls from -2.51 to -3.21.

Going from “HMNTEVDKVLLRSGEAYFGEVLLRNDELVMMKTQDGARFQFPVSEIKSIEKVSVADALRHINS” to “HMNTGFPIILETSDAANLTVGAPIMYRGVEVGKIRNMELNSLGDRVLIHILIGHKYQHLVRQNSEFWFSS”, the “soluble fraction (log2)” value falls from 0.263 to -4.

Compared with “HMNTKDRIKQLAAQRKITIAELERKLHIANGTIGKWDKQNPSIEPLKKLADYFGVTTDYLLGRT”, “HMNTKLKPLYLLDIFREMTDERHRMTVPELLEELQRRGITAERKGIYRDIDALIQYGADIKHTGTGYYLAR” is lower in “soluble fraction (log2)” value: -0.381 for the first, -0.93 for the second.

Going from “HMNTKLSYSDLIEKIEAGQVEKVELDAGGSSAIVKLKNDNIEKRVNVPSIDNLMENLQDNMKTGNISVTE” to “HMNTLLGLSNSFQDNKDLENANSISRRFISYRPRSEAELRIRLLKVFSHEIVLESVAQMYREGLLNDQRF”, the “soluble fraction (log2)” value falls from 0.168 to -3.18.

Going from “HMNTLTKEDIQKAIDVIPIDFKSVVILNLVEGFSYKETAEILEIPIGTVMSRLHRGRKILQKLLWEYSSSK” to “HMNTTTTKVVSVSSLNMRSGPSTSYNIIEVLTKDTQVEVISVEDGWAKIKYNSKTGYVSNQYLSDKK”, the “soluble fraction (log2)” value rises from -1.4 to -0.934.

First: HMNTVAKELATQATQAKKRAFLDAYAETGIIKRAAEIAGIERKSHYLWLEKDPEYVEAFKSAGEQ
Second: HMNTVSVGNLGLSVRAVNALKQAGIDTYDKLQELSWEELLLIPKLGQVTAAEIYRFITSYKKG
The “soluble fraction (log2)” value of the first is higher: 0.427 for the first, -1.56 for the second.

Source: the domain aggregation screens of Martell et al. (2025)
